This experiment deals with SUSD5 protein, expressed on HEK293 cells (ZsGreen1-SUSD5 vector) (Homo sapiens, UniProt O60279). The experiment in a line: flow cytometry on cells.
SUSD5 protein, expressed on HEK293 cells (ZsGreen1-SUSD5 vector), sequence (O60279 36-629): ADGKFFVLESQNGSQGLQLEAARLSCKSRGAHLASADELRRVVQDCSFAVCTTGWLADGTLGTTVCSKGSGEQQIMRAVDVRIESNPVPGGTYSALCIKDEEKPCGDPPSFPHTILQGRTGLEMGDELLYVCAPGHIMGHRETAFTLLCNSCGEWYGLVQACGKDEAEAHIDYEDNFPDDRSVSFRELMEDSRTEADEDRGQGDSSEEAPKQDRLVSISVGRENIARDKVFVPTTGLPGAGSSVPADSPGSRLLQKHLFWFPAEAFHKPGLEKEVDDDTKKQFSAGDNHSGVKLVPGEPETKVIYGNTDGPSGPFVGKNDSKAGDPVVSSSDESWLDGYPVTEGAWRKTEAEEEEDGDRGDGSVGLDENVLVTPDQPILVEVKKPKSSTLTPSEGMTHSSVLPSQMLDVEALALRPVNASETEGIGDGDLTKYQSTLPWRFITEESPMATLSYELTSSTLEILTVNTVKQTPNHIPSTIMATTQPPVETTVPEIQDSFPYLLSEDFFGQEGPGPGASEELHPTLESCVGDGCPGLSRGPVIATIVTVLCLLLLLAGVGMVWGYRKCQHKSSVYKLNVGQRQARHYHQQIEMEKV

B1: h1-3F1, stabilized humanized anti-CD169 mAb of clone #3F1 (variant 6 of h0-3F1) (antibody, V domains shown)
VH: QVQLVQSGAEVKKPGASVKVSCKASGYSFTTYYMHWVRQAPGQRLEWMGWISAYSGATKYSQKFQGRVTITRDTSASTAYMELSSLRSEDTAVYYCARKGGWIPFDYWGQGTTVTVSS
VL: not shown
For B1, the binding result is “binds”.

For the origin of these results see paper PMC12327374 (Biomedicine & pharmacotherapy = Biomedecine & …, 2024).
